Data as given in publication PMC7353425.

Biological target: 3 × LPG (truncated derivative of linker-protein G with three linker sequence repeats) (Streptococcus strain G148)
Experiment: QCM-D; 3 × LPG (3.27–654 nM) adsorbed on SiO2-coated sensor, free sites blocked with 1 mg/mL BSA, trastuzumab injected at 1 µg/mL; 1 × PBS pH 7.4, 22 °C, flow 150 µL/min; mass from the Voigt viscoelastic model

Question: With “trastuzumab (humanized anti-HER2 monoclonal antibody)” as the substance, how does the mass deposited for bound trastuzumab read?
Answer: Its mass deposited for bound trastuzumab is 1020 ng/cm^2.
